Where two headings read alike, the source gives them in different places. Peptide text beside a SMILES is read from it. * marks the point of attachment. X1 = CC(C)[C@H](NC(=O)CCCCCN1C(=O)CC(*)C1=O)C(=O)N[C@@H](CCCNC(N)=O)C(=O)Nc1ccc(C[N+]2=C(Nc3ccc4nccnc4c3Br)NCC2)cc1
Experiments:
[1] = system: melanin nanoparticles (mNPs); test: In vitro melanin binding assay (binding capacity and Kd, RED device, HPLC); set-up: species or system Sepia officinalis; details: for Binding Capacity (mole/mg melanin) / Kd: binding capacity and dissociation constant of ocular drugs, melanin
Description: The solutions (400 µL) were then mixed thoroughly with 400 µL of 1 mg/mL mNPs in pH 6.5 PBS solution and transferred to the inner reservoir of the rapid equilibrium dialysis (RED) device inserts (8 K MWCO). The outer reservoir was filled with 800 µL of pH 6.5 PBS solution. The samples were incubated on an orbital shaker with temperature control at 37 °C and 300 rpm for 48 h (n = 3). The solutions from outer reservoir (free drug) were than collected and transferred to an autosampler vial for HPLC analysis (Prominence LC2030, Shimadzu, Columbia, MD) with photodiode-array detection (PDA) system. […] The amount of bound drug was used to calculate the binding capacity (mol drug/mg melanin) and the dissociation constant (Kd) as previously described[20],[34].

[2] = In vitro stability of HR97-brimonidine conjugate in human aqueous or vitreous; type: in vitro ADME; details: for remaining at 24 h, 1 mg/mL / remaining at 168 h, 1 mg/mL / remaining at 336 h, 1 mg/mL / remaining at 672 h, 1 mg/mL: male, human, human aqueous humor (donor eyes, 0.02 µm filtered), stability in human aqueous humor, read-out: Normalized HR97-VC-PAB-brimonidine (%)
Description: Two pairs of human donor eyes were obtained from the Lions Gift of Sight under protocol IRB00056984 approved by the Johns Hopkins University School of Medicine Institutional Review Board. Both donors were male with an mean age of 74.5. The post-mortem times ranged from 35–40 h. The eyes were kept at 4 °C during transport and arrived within 48 h post-mortem. The vitreous and aqueous were first isolated and subsequently combined and filtered through the 0.02 µm syringe filter to remove cell debris. HR97-brimonidine (1 mg/mL) was incubated with human aqueous or vitreous (700 µL) at 37 °C (n = 3). On days 0, 1, 7, 14, 21 and 28, 100 µL of the solutions were collected, diluted with 900 µL of acetonitrile, and characterized by HPLC (Prominence LC2030, Shimadzu) with Luna® 5 µm C18(2) 100 Å LC column 250 × 4.6 mm (Phenomenex). The elution flow rate was 1 mL/min and with gradient of 10/90/90/10% solvent B (TFA 0.1% in ACN) in 1/11/13/15 min at λmax = 250 nm for HR97-brimonidine (RT = 4.6 min).

[3] = Ocular safety evaluation / ocular grading after ICM injection; details: single ICM injection, 200 µg brimonidine equivalent
Description: (§1) For the IOP measurements in normotensive rabbits, Dutch Belted rabbits (2–3 kg) were used (n = 5). IOP was measured with a hand-held rebound tonometer icareTONOVET (Vantaa, Finland) in the awake and gently restrained rabbit. Each rabbit was acclimatized to the IOP measurement procedure for at least 5 days to obtain a stable background IOP reading. A mean of three IOP measurements for an individual eye were taken every other day for 6 days (3 times in total) and used as a baseline value. For the ICM injection procedure, rabbits were anesthetized with ketamine/xylazine and received topical anesthesia with 0.5% proparacaine hydrochloride. A corneal pre-puncture was performed with a 30 G needle, followed with a single bolus ICM injection of 200 µg (mass of brimonidine) of HR97-brimonidine or brimonidine tartrate solution in 100 µL saline using a 28 G needle. After the procedure, topical bacitracin-neomycin-polymyxin ophthalmic ointment was applied to both eyes to prevent infection and dry eyes. On day 7, an ophthalmologist masked to treatment evaluate the HR97-brimonidine injected eyes with the following items: functionality of lids, lashes, conjunctiva, cornea transparency, pigmentation of corneal endothelium, depth of anterior chambers, inflammation, fibrin strands, and symmetry of the lens[113]. […] In a separate study, a corneal pre-puncture was performed with a 30 G needle, followed with a single bolus ICM injection of 200 µg (mass of brimonidine) containing a physical mixture of unconjugated HR97 and brimonidine tartrate (HR97 + brimonidine), the equivalent amount of HR97 peptide alone, or saline alone in 100 µL saline. On day 7, day 14, day 21, and day 28, an ophthalmologist masked to treatment performed the same safety evaluations described above. IOP was measured on days 2, 3, 4, 5, 6, 7, 8, 10, 12, 14, 16, 18, and 20 after the ICM injection, and change in IOP from the baseline (ΔIOP) was reported. The mean of three IOP measurements was taken for each eye by one observer, and then confirmed by a masked observer. Alternatively, a single topical eye drop (Alphagan® P 0.1%, 50 µL) was given (n = 5). The IOP were measured immediately before the topical dosing (0 h), and at 2, 4, 6 and 8 h after the eyedrop administration. For the pharmacokinetics studies, rabbits (n = 4 per group) received a single ICM injection with 200 µg (mass of brimonidine) HR97-brimonidine as described above. Rabbits were sacrificed 1, 7, 14, 28 days after the injection, and iris, aqueous, and retina were collected for measuring the brimonidine concentration.

[4] = Brimonidine in ocular tissues after ICM injection (LC-MS/MS); details: LC-MS/MS
Description: as §1
Brimonidine concentrations in ocular tissues were measured by liquid chromatography-tandem mass spectrometry (LC-MS/MS) as previously described. All samples were collected in pre-weighed tubes and stored at −80 °C until processing for analysis. Tissue samples were homogenized in 100–600 μL 1 × PBS using a Bullet Blender® (Next Advance, Inc, Troy, NY, USA) before extraction. Brimonidine were extracted from 15 to 50 μL of tissue homogenates with 50 μL of acetonitrile containing 50/50/2.5 ng/mL of the internal standards. The top layer was then transferred to an autosampler vial for LC-MS/MS analysis after centrifugation. All ocular tissue samples were analyzed using a 1 × PBS standard curve for brimonidine. […] The column effluent was monitored using a 5500 mass-spectrometric detector (Sciex) using electrospray ionization operating in positive mode. The mobile phase A was water containing 0.1% formic acid and mobile phase B was acetonitrile containing 0.1% formic acid. The gradient started with mobile phase B held at 20% for 0.5 min and increased to 100% over 0.5 min; 100% mobile phase B was held for 1 min and then returned to 20% mobile phase B and allowed to equilibrate for 1 min.

[5] = system: intraocular pressure; test: IOP measurement in normotensive Dutch Belted rabbits; type: in vivo
Description: as §1

[6] = system: human cathepsins B, K, L, and S; test: Cathepsin cleavage assay
[7] = 28 days after single ICM injection of HR97-brimonidine (200 µg brimonidine equivalent), n = 3-4

In the case of `CC1(C)O[C@@H]2C[C@H]3[C@@H]4CCC5=CC(=O)C=C[C@]5(C)[C@@]4(F)[C@@H](O)C[C@]3(C)[C@]2(C(=O)CO)O1` [Triamcinolone Acetonide], the “Binding Capacity (mole/mg melanin)” value [1] is reported as 2.24E-08 mole/mg melanin and the Kd [1] is reported as 12.5 µM.
With `COCCc1ccc(OCC(O)CNC(C)C)cc1` (stereo not shown) [Metoprolol] the “Binding Capacity (mole/mg melanin)” value [1] was 2.69E-08 mole/mg melanin and the Kd [1] was 495 µM.
Work on `CC(C)[C@H](NC(=O)CCCCCN1C(=O)CC(SC[C@H](NC(=O)[C@H](CCCNC(=N)N)NC(=O)[C@@H]2CCCN2C(=O)[C@H](CCCCN)NC(=O)[C@H](CCCNC(=N)N)NC(=O)[C@H](CCCCN)NC(=O)[C@H](CCCNC(=N)N)NC(=O)[C@H](CCCNC(=N)N)NC(=O)[C@H](CCCCN)NC(=O)CNC(=O)[C@H](CO)NC(=O)[C@@H](N)Cc2ccccc2)C(=O)O)C1=O)C(=O)N[C@@H](CCCNC(N)=O)C(=O)Nc1ccc(C[N+]2=C(Nc3ccc4nccnc4c3Br)NCC2)cc1` (stereo partly shown) [HR97-VC-PAB-brimonidine] (H-FSGKRRKRKPRC(X1)-OH; N-terminus and C-terminus assumed) yielded a remaining at 24 h, 1 mg/mL ([2]; day 1, replicate 1) of 99.1%, a remaining at 24 h, 1 mg/mL ([2]; day 1, replicate 2) of 93.5% and a remaining at 24 h, 1 mg/mL ([2]; day 1, replicate 3) of 95.5%. It also gave a remaining at 168 h, 1 mg/mL ([2]; day 7, replicate 1) of 90.8%, a remaining at 168 h, 1 mg/mL ([2]; day 7, replicate 2) of 101% and a remaining at 168 h, 1 mg/mL ([2]; day 7, replicate 3) of 96.4%. The remaining at 336 h, 1 mg/mL ([2]; day 14, replicate 1) was 92.6%, the remaining at 336 h, 1 mg/mL ([2]; day 14, replicate 2) was 95.3% and the remaining at 336 h, 1 mg/mL ([2]; day 14, replicate 3) was 93.9%. For the same compound, the remaining at 672 h, 1 mg/mL ([2]; day 28, replicate 1) was 88.5%, the remaining at 672 h, 1 mg/mL ([2]; day 28, replicate 2) was 95% and the remaining at 672 h, 1 mg/mL ([2]; day 28, replicate 3) was 92.3%.
With “FSGKRRKRKPRC [HR97-brimonidine, HR97 peptide conjugated to brimonidine via a quaternary-ammonium traceless linker (MC-Val-Cit-PAB)]” the “ocular toxicity, ophthalmologist evaluation on day 7” value [3] was “no apparent inflammation or fibrin strands”, the “Binding Capacity (mole/mg melanin)” value [1] was 5.9e-7 mole/mg melanin and the Kd [1] was 4.36 µM. The “increase in the in vitro melanin binding capacity of brimonidine by conjugation to HR97” value ([1]; versus brimonidine) was ~ 10 fold, the “brimonidine concentration in aqueous humor” value [4, 7] was 0.4 ng/g and the “brimonidine concentration in iris” value [4, 7] was 980 ng/g. The “brimonidine concentration in retina” value [4, 7] was 8.3 ng/g, the “brimonidine concentration in the aqueous” value ([4]; day 7 after single ICM injection of HR97-brimonidine) was 83.3 ng/g and the “brimonidine concentration in the aqueous” value ([4]; day 14 after single ICM injection of HR97-brimonidine) was 3.9 ng/g. For the same compound, the “AUClast of cumulative ΔIOP, fold greater compared to brimonidine solution” value ([5]; 20-day measurement period after ICM injection, n = 5, p < 0.001) was ~ 17 fold, the “time during which mean ΔIOP remained significantly larger than with brimonidine solution or physical mixture” value ([5]; single ICM injection) was “up to 14 days” and the “peak ΔIOP at 2 days” value ([5]; single ICM injection, 200 µg brimonidine equivalent, n = 5) was −4.9 ± 0.46 mmHg. For the same compound, the “time for the mean ΔIOP to return to baseline” value ([5]; single ICM injection, n = 5 per group) was 20 days, the “duration of IOP lowering” value ([5]; single ICM injection, normotensive rabbits) was “up to 18 days” and the “cathepsin cleavage assay, Cathepsin” value ([6]; replicate 1) was 47. The “cathepsin cleavage assay, Cathepsin” value ([6]; replicate 2) was 58, the “cathepsin cleavage assay, Cathepsin” value ([6]; replicate 3) was 42 and the “brimonidine liberated with human cathepsin cocktails” value ([6]; conjugate 200 μM diluted 1:1 with 100 mM citrate buffer pH 5.5, 5 mM cysteine, cathepsins B, K, L, S 150 nM each, within 48 h, 37 °C, HPLC, normalized to 0 h, n = 3) was ~ 52%. The “brimonidine released from the conjugate in human aqueous fluid” value ([2]; 1 mg/mL in human aqueous (donor eyes, 0.02 µm filtered), 37 °C, over 28 days, HPLC 250 nm, normalized to day 0, mean of n = 3) was ~ 7%.
For `CCN(CC)CCCC(C)Nc1ccnc2cc(Cl)ccc12` (stereo not shown) [Chloroquine], the “Binding Capacity (mole/mg melanin)” value [1] was 3.8e-7 mole/mg melanin and the Kd [1] was 76 µM.
For `CCNCCNC(=O)c1c(C)[nH]c(/C=C2\C(=O)Nc3ccc(F)cc32)c1C` [N-Desethyl Sunitinib], the “Binding Capacity (mole/mg melanin)” value [1] was 2.61e-6 mole/mg melanin and the Kd [1] was 2.13 µM.
For `CC(C)(C)NC[C@H](O)COc1nsnc1N1CCOCC1` [Timolol], the “Binding Capacity (mole/mg melanin)” value [1] was 3.9e-8 mole/mg melanin and the Kd [1] was 120 µM.
For `CC12CC3CC(C)(C1)CC(N)(C3)C2` [Memantine], the “Binding Capacity (mole/mg melanin)” value [1] was 2.07e-7 mole/mg melanin and the Kd [1] was 804 µM.

Reference: publication PMC10154330, “Machine learning-driven multifunctional peptide engineering for sustained ocular drug delivery” (Nature Communications, 2023)
